# Measurements reported in patent US20210388087A1 (Chugai, published 2021).
# Target: T1, Human CD3eg linker (human)
# T1 construct: Single-chain construct; also called recombinant human CD3
# T1 chain: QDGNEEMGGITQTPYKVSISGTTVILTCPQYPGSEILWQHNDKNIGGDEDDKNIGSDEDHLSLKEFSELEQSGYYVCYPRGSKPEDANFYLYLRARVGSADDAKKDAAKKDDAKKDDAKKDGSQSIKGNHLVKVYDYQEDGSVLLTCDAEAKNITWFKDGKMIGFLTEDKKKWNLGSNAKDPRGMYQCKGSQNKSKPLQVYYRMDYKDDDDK
# Assay: SPR; fold vs parent H183/L072
row,Binder,fold change of affinity [fold]
1,"H183/L072 VL F55W (antibody, name in Kabat numbering, V domains shown) VH: QVQLVESGGGLVQPGRSLRLSCAASGFTFSNAWMHWVRQAPGKGLEWVAQIKDKGNAYAAYYAPSVKGRFTISRDDSKNSIYLQMNSLKTEDTAVYYCHYVHYASASTVLPAFGVDAWGQGTTVTVSS VL: DIVMTQSPLSLPVTPGEPASISCQASQELVHMNRNTYLHWYQQKPGQAPRLLIYKVSNRWPGVPDRFSGSGSGTDFTLKISRVEAEDVGVYYCAQGTSVPFTFGQGTKLEIK",0.2
2,"H183/L072 VL G91Q (antibody, name in Kabat numbering, V domains shown) VH: QVQLVESGGGLVQPGRSLRLSCAASGFTFSNAWMHWVRQAPGKGLEWVAQIKDKGNAYAAYYAPSVKGRFTISRDDSKNSIYLQMNSLKTEDTAVYYCHYVHYASASTVLPAFGVDAWGQGTTVTVSS VL: DIVMTQSPLSLPVTPGEPASISCQASQELVHMNRNTYLHWYQQKPGQAPRLLIYKVSNRFPGVPDRFSGSGSGTDFTLKISRVEAEDVGVYYCAQQTSVPFTFGQGTKLEIK",0
3,"H183/L072 VL H27dF (antibody, name in Kabat numbering, V domains shown) VH: QVQLVESGGGLVQPGRSLRLSCAASGFTFSNAWMHWVRQAPGKGLEWVAQIKDKGNAYAAYYAPSVKGRFTISRDDSKNSIYLQMNSLKTEDTAVYYCHYVHYASASTVLPAFGVDAWGQGTTVTVSS VL: DIVMTQSPLSLPVTPGEPASISCQASQELVFMNRNTYLHWYQQKPGQAPRLLIYKVSNRFPGVPDRFSGSGSGTDFTLKISRVEAEDVGVYYCAQGTSVPFTFGQGTKLEIK",0.2
4,"H183/L072 VL F96Q (antibody, name in Kabat numbering, V domains shown) VH: QVQLVESGGGLVQPGRSLRLSCAASGFTFSNAWMHWVRQAPGKGLEWVAQIKDKGNAYAAYYAPSVKGRFTISRDDSKNSIYLQMNSLKTEDTAVYYCHYVHYASASTVLPAFGVDAWGQGTTVTVSS VL: DIVMTQSPLSLPVTPGEPASISCQASQELVHMNRNTYLHWYQQKPGQAPRLLIYKVSNRFPGVPDRFSGSGSGTDFTLKISRVEAEDVGVYYCAQGTSVPQTFGQGTKLEIK",0
5,"H183/L072 VL H27dK (antibody, name in Kabat numbering, V domains shown) VH: QVQLVESGGGLVQPGRSLRLSCAASGFTFSNAWMHWVRQAPGKGLEWVAQIKDKGNAYAAYYAPSVKGRFTISRDDSKNSIYLQMNSLKTEDTAVYYCHYVHYASASTVLPAFGVDAWGQGTTVTVSS VL: DIVMTQSPLSLPVTPGEPASISCQASQELVKMNRNTYLHWYQQKPGQAPRLLIYKVSNRFPGVPDRFSGSGSGTDFTLKISRVEAEDVGVYYCAQGTSVPFTFGQGTKLEIK",0
6,"H183/L072 VL H27dE (antibody, name in Kabat numbering, V domains shown) VH: QVQLVESGGGLVQPGRSLRLSCAASGFTFSNAWMHWVRQAPGKGLEWVAQIKDKGNAYAAYYAPSVKGRFTISRDDSKNSIYLQMNSLKTEDTAVYYCHYVHYASASTVLPAFGVDAWGQGTTVTVSS VL: DIVMTQSPLSLPVTPGEPASISCQASQELVEMNRNTYLHWYQQKPGQAPRLLIYKVSNRFPGVPDRFSGSGSGTDFTLKISRVEAEDVGVYYCAQGTSVPFTFGQGTKLEIK",0
7,"H183/L072 VL G91D (antibody, name in Kabat numbering, V domains shown) VH: QVQLVESGGGLVQPGRSLRLSCAASGFTFSNAWMHWVRQAPGKGLEWVAQIKDKGNAYAAYYAPSVKGRFTISRDDSKNSIYLQMNSLKTEDTAVYYCHYVHYASASTVLPAFGVDAWGQGTTVTVSS VL: DIVMTQSPLSLPVTPGEPASISCQASQELVHMNRNTYLHWYQQKPGQAPRLLIYKVSNRFPGVPDRFSGSGSGTDFTLKISRVEAEDVGVYYCAQDTSVPFTFGQGTKLEIK",0
8,"H183/L072 VL G91H (antibody, name in Kabat numbering, V domains shown) VH: QVQLVESGGGLVQPGRSLRLSCAASGFTFSNAWMHWVRQAPGKGLEWVAQIKDKGNAYAAYYAPSVKGRFTISRDDSKNSIYLQMNSLKTEDTAVYYCHYVHYASASTVLPAFGVDAWGQGTTVTVSS VL: DIVMTQSPLSLPVTPGEPASISCQASQELVHMNRNTYLHWYQQKPGQAPRLLIYKVSNRFPGVPDRFSGSGSGTDFTLKISRVEAEDVGVYYCAQHTSVPFTFGQGTKLEIK",0
9,"H183/L072 VL G91T (antibody, name in Kabat numbering, V domains shown) VH: QVQLVESGGGLVQPGRSLRLSCAASGFTFSNAWMHWVRQAPGKGLEWVAQIKDKGNAYAAYYAPSVKGRFTISRDDSKNSIYLQMNSLKTEDTAVYYCHYVHYASASTVLPAFGVDAWGQGTTVTVSS VL: DIVMTQSPLSLPVTPGEPASISCQASQELVHMNRNTYLHWYQQKPGQAPRLLIYKVSNRFPGVPDRFSGSGSGTDFTLKISRVEAEDVGVYYCAQTTSVPFTFGQGTKLEIK",0
10,"H183/L072 VL F96E (antibody, name in Kabat numbering, V domains shown) VH: QVQLVESGGGLVQPGRSLRLSCAASGFTFSNAWMHWVRQAPGKGLEWVAQIKDKGNAYAAYYAPSVKGRFTISRDDSKNSIYLQMNSLKTEDTAVYYCHYVHYASASTVLPAFGVDAWGQGTTVTVSS VL: DIVMTQSPLSLPVTPGEPASISCQASQELVHMNRNTYLHWYQQKPGQAPRLLIYKVSNRFPGVPDRFSGSGSGTDFTLKISRVEAEDVGVYYCAQGTSVPETFGQGTKLEIK",0
11,"H183/L072 VL F96K (antibody, name in Kabat numbering, V domains shown) VH: QVQLVESGGGLVQPGRSLRLSCAASGFTFSNAWMHWVRQAPGKGLEWVAQIKDKGNAYAAYYAPSVKGRFTISRDDSKNSIYLQMNSLKTEDTAVYYCHYVHYASASTVLPAFGVDAWGQGTTVTVSS VL: DIVMTQSPLSLPVTPGEPASISCQASQELVHMNRNTYLHWYQQKPGQAPRLLIYKVSNRFPGVPDRFSGSGSGTDFTLKISRVEAEDVGVYYCAQGTSVPKTFGQGTKLEIK",0
12,"H183/L072 VL H27dG (antibody, name in Kabat numbering, V domains shown) VH: QVQLVESGGGLVQPGRSLRLSCAASGFTFSNAWMHWVRQAPGKGLEWVAQIKDKGNAYAAYYAPSVKGRFTISRDDSKNSIYLQMNSLKTEDTAVYYCHYVHYASASTVLPAFGVDAWGQGTTVTVSS VL: DIVMTQSPLSLPVTPGEPASISCQASQELVGMNRNTYLHWYQQKPGQAPRLLIYKVSNRFPGVPDRFSGSGSGTDFTLKISRVEAEDVGVYYCAQGTSVPFTFGQGTKLEIK",0
13,"H183/L072 VL G91E (antibody, name in Kabat numbering, V domains shown) VH: QVQLVESGGGLVQPGRSLRLSCAASGFTFSNAWMHWVRQAPGKGLEWVAQIKDKGNAYAAYYAPSVKGRFTISRDDSKNSIYLQMNSLKTEDTAVYYCHYVHYASASTVLPAFGVDAWGQGTTVTVSS VL: DIVMTQSPLSLPVTPGEPASISCQASQELVHMNRNTYLHWYQQKPGQAPRLLIYKVSNRFPGVPDRFSGSGSGTDFTLKISRVEAEDVGVYYCAQETSVPFTFGQGTKLEIK",0
14,"H183/L072 VL F96H (antibody, name in Kabat numbering, V domains shown) VH: QVQLVESGGGLVQPGRSLRLSCAASGFTFSNAWMHWVRQAPGKGLEWVAQIKDKGNAYAAYYAPSVKGRFTISRDDSKNSIYLQMNSLKTEDTAVYYCHYVHYASASTVLPAFGVDAWGQGTTVTVSS VL: DIVMTQSPLSLPVTPGEPASISCQASQELVHMNRNTYLHWYQQKPGQAPRLLIYKVSNRFPGVPDRFSGSGSGTDFTLKISRVEAEDVGVYYCAQGTSVPHTFGQGTKLEIK",0
15,"H183/L072 VL F96D (antibody, name in Kabat numbering, V domains shown) VH: QVQLVESGGGLVQPGRSLRLSCAASGFTFSNAWMHWVRQAPGKGLEWVAQIKDKGNAYAAYYAPSVKGRFTISRDDSKNSIYLQMNSLKTEDTAVYYCHYVHYASASTVLPAFGVDAWGQGTTVTVSS VL: DIVMTQSPLSLPVTPGEPASISCQASQELVHMNRNTYLHWYQQKPGQAPRLLIYKVSNRFPGVPDRFSGSGSGTDFTLKISRVEAEDVGVYYCAQGTSVPDTFGQGTKLEIK",0
16,"H183/L072 VL F96T (antibody, name in Kabat numbering, V domains shown) VH: QVQLVESGGGLVQPGRSLRLSCAASGFTFSNAWMHWVRQAPGKGLEWVAQIKDKGNAYAAYYAPSVKGRFTISRDDSKNSIYLQMNSLKTEDTAVYYCHYVHYASASTVLPAFGVDAWGQGTTVTVSS VL: DIVMTQSPLSLPVTPGEPASISCQASQELVHMNRNTYLHWYQQKPGQAPRLLIYKVSNRFPGVPDRFSGSGSGTDFTLKISRVEAEDVGVYYCAQGTSVPTTFGQGTKLEIK",0
17,"H183/L072 VL H27dD (antibody, name in Kabat numbering, V domains shown) VH: QVQLVESGGGLVQPGRSLRLSCAASGFTFSNAWMHWVRQAPGKGLEWVAQIKDKGNAYAAYYAPSVKGRFTISRDDSKNSIYLQMNSLKTEDTAVYYCHYVHYASASTVLPAFGVDAWGQGTTVTVSS VL: DIVMTQSPLSLPVTPGEPASISCQASQELVDMNRNTYLHWYQQKPGQAPRLLIYKVSNRFPGVPDRFSGSGSGTDFTLKISRVEAEDVGVYYCAQGTSVPFTFGQGTKLEIK",0
18,"H183/L072 VL F96S (antibody, name in Kabat numbering, V domains shown) VH: QVQLVESGGGLVQPGRSLRLSCAASGFTFSNAWMHWVRQAPGKGLEWVAQIKDKGNAYAAYYAPSVKGRFTISRDDSKNSIYLQMNSLKTEDTAVYYCHYVHYASASTVLPAFGVDAWGQGTTVTVSS VL: DIVMTQSPLSLPVTPGEPASISCQASQELVHMNRNTYLHWYQQKPGQAPRLLIYKVSNRFPGVPDRFSGSGSGTDFTLKISRVEAEDVGVYYCAQGTSVPSTFGQGTKLEIK",0
19,"H183/L072 VL G91K (antibody, name in Kabat numbering, V domains shown) VH: QVQLVESGGGLVQPGRSLRLSCAASGFTFSNAWMHWVRQAPGKGLEWVAQIKDKGNAYAAYYAPSVKGRFTISRDDSKNSIYLQMNSLKTEDTAVYYCHYVHYASASTVLPAFGVDAWGQGTTVTVSS VL: DIVMTQSPLSLPVTPGEPASISCQASQELVHMNRNTYLHWYQQKPGQAPRLLIYKVSNRFPGVPDRFSGSGSGTDFTLKISRVEAEDVGVYYCAQKTSVPFTFGQGTKLEIK",0
20,"H183/L072 VL G91S (antibody, name in Kabat numbering, V domains shown) VH: QVQLVESGGGLVQPGRSLRLSCAASGFTFSNAWMHWVRQAPGKGLEWVAQIKDKGNAYAAYYAPSVKGRFTISRDDSKNSIYLQMNSLKTEDTAVYYCHYVHYASASTVLPAFGVDAWGQGTTVTVSS VL: DIVMTQSPLSLPVTPGEPASISCQASQELVHMNRNTYLHWYQQKPGQAPRLLIYKVSNRFPGVPDRFSGSGSGTDFTLKISRVEAEDVGVYYCAQSTSVPFTFGQGTKLEIK",0
